Experimental data taken from article PMC2685030, “SmCL3, a Gastrodermal Cysteine Protease of the Human Blood Fluke Schistosoma mansoni” (PLoS Neglected Tropical Diseases, 2009).

Tested on: Cc1cc(=O)oc2cc(NC(=O)[C@H](CCCNC(=N)N)NC(=O)[C@H](Cc3ccccc3)NC(=O)OCc3ccccc3)ccc12
Test: purified protein
Conditions: pH 6.0 citrate-phosphate, 25°C, 3 nM enzyme

SmCL3 (Schistosoma mansoni) gave a Km of 20.2 µM.
